In the supplement of paper PMC9112550, “Optimization of the antimicrobial peptide Bac7 by deep mutational scanning” (BMC Biology, 2022):

Test system: Escherichia coli TOP10
Assay: shrunken log2 fold change of peptide-encoding DNA abundance (4.5 h post-induction vs induction); higher = less antimicrobial activity (less host growth inhibition)
Conditions: time post-induction: 4.5 h; library: site-saturation at positions 5, 18, 19, 20
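Further: peptides expressed intracellularly from a pBAD plasmid library in pooled LB shake-flask culture, induced with 0.3% L-arabinose, DNA abundance read by NGS, three biological replicates, DESeq2 with apeglm shrinkage.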

Sequence | shrunken log2 fold change
RRIRARPPRLPRPRPRPAANPRP | 0.741
RRIRARPPRLPRPRPRPAAPPRP | 0.99
RRIRARPPRLPRPRPRPAAWPRP | 0.613
RRIRARPPRLPRPRPRPADMPRP | 0.194
RRIRARPPRLPRPRPRPAFAPRP | 0.685
RRIRARPPRLPRPRPRPAFKPRP | 0.126
RRIRARPPRLPRPRPRPAFVPRP | 0.315
RRIRARPPRLPRPRPRPAITPRP | 0.322
RRIRARPPRLPRPRPRPAIWPRP | 0.709
RRIRARPPRLPRPRPRPAKDPRP | 0.316
RRIRARPPRLPRPRPRPAMLPRP | 0.226
RRIRARPPRLPRPRPRPANFPRP | 0.137
RRIRARPPRLPRPRPRPANIPRP | -0.19
RRIRARPPRLPRPRPRPAPAPRP | 0.922
RRIRARPPRLPRPRPRPAQFPRP | 0.509
RRIRARPPRLPRPRPRPAQWPRP | 0.252
RRIRARPPRLPRPRPRPASDPRP | 0.661
RRIRARPPRLPRPRPRPATHPRP | 0.186
RRIRARPPRLPRPRPRPAVNPRP | 0.102
RRIRARPPRLPRPRPRPAVPPRP | 0.848
RRIRARPPRLPRPRPRPAVTPRP | 0.214
RRIRARPPRLPRPRPRPAWNPRP | -0.132
RRIRARPPRLPRPRPRPAYNPRP | 0.0748
RRIRARPPRLPRPRPRPAYTPRP | -0.0472
RRIRARPPRLPRPRPRPCAAPRP | 0.893
RRIRARPPRLPRPRPRPCDCPRP | -0.21
RRIRARPPRLPRPRPRPCEKPRP | 0.0244

Sequence | shrunken log2 fold change
RRIRARPPRLPRPRPRPCESPRP | 0.214
RRIRARPPRLPRPRPRPCEVPRP | 3.46
RRIRARPPRLPRPRPRPCFMPRP | -0.0304
RRIRARPPRLPRPRPRPCHIPRP | 0.00153
RRIRARPPRLPRPRPRPCHKPRP | -0.259
RRIRARPPRLPRPRPRPCHVPRP | -0.0999
RRIRARPPRLPRPRPRPCNLPRP | -0.314
RRIRARPPRLPRPRPRPCNSPRP | -0.0983
RRIRARPPRLPRPRPRPCPTPRP | 0.088
RRIRARPPRLPRPRPRPCQLPRP | -0.0907
RRIRARPPRLPRPRPRPCSNPRP | -0.153
RRIRARPPRLPRPRPRPCSVPRP | 0.0736
RRIRARPPRLPRPRPRPCTTPRP | 0.184
RRIRARPPRLPRPRPRPCWLPRP | 0.294
RRIRARPPRLPRPRPRPCYVPRP | -0.279
RRIRARPPRLPRPRPRPDAAPRP | 1.48
RRIRARPPRLPRPRPRPDDLPRP | -0.00225
RRIRARPPRLPRPRPRPDDTPRP | 0.468
RRIRARPPRLPRPRPRPDDVPRP | 0.0875
RRIRARPPRLPRPRPRPDDWPRP | 1.12
RRIRARPPRLPRPRPRPDEPPRP | 0.0489
RRIRARPPRLPRPRPRPDERPRP | 0.423
RRIRARPPRLPRPRPRPDFCPRP | 0.168
RRIRARPPRLPRPRPRPDFMPRP | 0.466
RRIRARPPRLPRPRPRPDFTPRP | -0.0266
RRIRARPPRLPRPRPRPDFWPRP | 0.289
RRIRARPPRLPRPRPRPDGIPRP | 0.446
